Key:
CYP6Z2 = target: T1, CYP6Z2 (Anopheles gambiae, UniProt A8I285); assay: resorufin fluorescence turnover, recombinant membranes; type: biochemical; conditions: 5 µM substrate, NADPH regeneration, cyt b5, 0.1 M KPi pH 7.4, 25°C
T1 construct: recombinant membrane preparation from earlier work; cytochrome b5 added
T1 sequence (A8I285 1-492): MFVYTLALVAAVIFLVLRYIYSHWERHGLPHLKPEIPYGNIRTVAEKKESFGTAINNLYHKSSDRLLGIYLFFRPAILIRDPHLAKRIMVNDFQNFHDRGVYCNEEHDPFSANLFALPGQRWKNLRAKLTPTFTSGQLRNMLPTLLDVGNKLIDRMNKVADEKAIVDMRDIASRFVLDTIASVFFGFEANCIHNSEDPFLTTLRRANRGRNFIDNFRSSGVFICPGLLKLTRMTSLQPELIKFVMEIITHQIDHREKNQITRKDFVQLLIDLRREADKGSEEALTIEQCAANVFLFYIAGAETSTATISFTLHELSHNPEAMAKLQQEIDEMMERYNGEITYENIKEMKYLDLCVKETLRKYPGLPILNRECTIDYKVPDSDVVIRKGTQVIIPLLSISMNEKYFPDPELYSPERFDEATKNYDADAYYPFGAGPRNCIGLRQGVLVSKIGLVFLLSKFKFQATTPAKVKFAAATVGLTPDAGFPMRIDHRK

[1] = substrate: CC1(C)[C@H](C(=O)O[C@H](C#N)c2cccc(Oc3ccccc3)c2)[C@@H]1C=C(Br)Br; assay: HPLC substrate depletion, recombinant E. coli membranes, Michaelis-Menten fit; type: biochemical, Aedes aegypti; conditions: 0.1 µM P450, 0.8 µM cyt b5, NADPH regeneration, 200 mM Tris-HCl pH 7.4, 30°C, 10 min, apparent
Text: (§1) HPLC substrate depletion, recombinant E. coli membranes, Michaelis-Menten fit on CYP9J32

[2] = substrate: CC1(C)C(C=C(Cl)Cl)C1C(=O)OCc1cccc(Oc2ccccc2)c1; assay: as above; type: biochemical, Aedes aegypti; conditions: 0.1 µM P450, 0.8 µM cyt b5, NADPH regeneration, 200 mM Tris-HCl pH 7.4, 30°C, 10 min, apparent
Text: as §1

[3] = substrate: CC1(C)[C@H](C(=O)O[C@H](C#N)c2cccc(Oc3ccccc3)c2)[C@@H]1C=C(Br)Br; assay: as above; type: biochemical, Aedes aegypti; conditions: 0.1 µM P450, 0.8 µM cyt b5, NADPH regeneration, 200 mM Tris-HCl pH 7.4, 30°C, 10 min, apparent; remark: listed apart in the source
Text: (§2) HPLC substrate depletion, recombinant E. coli membranes, Michaelis-Menten fit on CYP9J26

[4] = substrate: CC1(C)C(C=C(Cl)Cl)C1C(=O)OCc1cccc(Oc2ccccc2)c1; assay: as above; type: biochemical, Aedes aegypti; conditions: 0.1 µM P450, 0.8 µM cyt b5, NADPH regeneration, 200 mM Tris-HCl pH 7.4, 30°C, 10 min, apparent; remark: listed apart in the source
Text: as §2

Q: For `COc1ccc2nc3ccc(=O)cc-3oc2c1` [RME], which “resorufin fluorescence turnover, recombinant membranes” value (CYP6Z2) is on record?
A: greatest activity towards RME for the resorufin ethers and L-ME for the proluciferins

B1: CYP9J32 (Aedes aegypti) (protein)
chain: VIYRQVKKHYDYFHDKPIPSMATVPLLGSTGPLMTKRCTFNDFIQTIYNKYPSAKIFGLFDMTTKMFVLRDPEVIKKITVKDFEYFVDRRPLFGANKEDDGNENILFNKTLVGMVDQRWRDMRAILSPAFTGSKMRAMFELIEQYCTQMVPILKEQSAESGYVDYEMKDFFSRVANDIIATCAFGLQVESLKSRDNEFYTMGKQMMNFNRFIVLLRVMGLRFFPSLMIKMGVDIVDREQNQYFSKIIKEAVRARETHGIVRPDMIHLLMQARKGTLKHQQETTESTAGFATVEESDVGKSVVSKTMSEPEFIAQCLIFFLAGFDTVSTGMLFMAYELALNPDIQQKLYEEIAQTNKELGGKPATYDTLQKMKYMDMVVSESLRMWPVAAFDRKCGRDYVLDDGAGLKFTIDAGTCIWVPVYGIHRDPKYYPNPDKFEPERFSDENRGKIDMTMYMPFGMGPRNCIGSRFALMEIKAIMYALLLNFSIERNEKTQVPLKLVKGFVGLQVENGLHLRFKKRK
notes: full-length, ompA leader with Ala-Gly linker at N-terminus, E. coli DH5alpha membranes; co-expressed An. gambiae CPR, added An. gambiae cytochrome b5
Q: B1 was tested. Which Km [1] did it give?
A: 5.2 ± 2.1 µM

Q: And the kcat [1]?
A: 0.05 ± 0.00833 s⁻¹

Q: And the Km [2]?
A: 2.3 ± 1.1 µM

Q: What about the kcat [2] of the same molecule?
A: 0.0133 ± 0.00167 s⁻¹

B2: CYP9J26 (Aedes aegypti) (protein)
chain: MEVELLHVGVLVAIVAFLYRWITRNNDYFHDKPIPSMAVTPFLGASGPLLLRKVTFNDFVQSIYNKYPGVKVFGMFDTITPFFVIRDPELIKQIGIKDFDHFVDHRPTFGLDDETAEHPKALFRKTLFSMTGQRWKEMRATLSPAFTGSKMRQMFSLMSECCDEMMKHYLDKAKGSGRVEVEMKDLLSRISINVIASCAFGIKVDCFKEQEHEFLYHGRKMMGFGRPIVIARMLAMRVFPKFAAKFGIDLLDREQANYFTHVFQETIRARESHGYIRHDMIDLLLQARKGTLKYQEEKDDQEGFATVQESDVGKADVSKSMTEAEMIAQCLIFFLGGFDTVSTCAMFTAYELVRNPEVQHKLYEEIKQTEKELEGKPLSYDALQKMKYMDMVVSETLRMWPLAPATDRLCTQDYTIDDGQGVRFTIDKGTCVWFPAAGLHHDPQYFPNPEKFDPERFNDENKRNINLGAYLPFGIGPRNCIGSRFALMEVKAVMYFILLKFSFVRGAKTQIPMQLRKGFTNLGPENGMHVELKLR
notes: full-length, ompA-Ala-Pro leader at N-terminus, pCW-ori+, E. coli DH5alpha membranes; co-expressed An. gambiae CPR, added An. gambiae cytochrome b5
Q: Which results are given for B2?
A: Km [3]: 1.2 ± 0.2 µM; kcat [3]: 0.00367 ± 0.000167 s⁻¹; Km [4]: 4.2 ± 0.9 µM; kcat [4]: 0.01 ± 0.00167 s⁻¹

From paper PMC3313934, “Pinpointing P450s Associated with Pyrethroid Metabolism in the Dengue Vector, Aedes aegypti: Developing New Tools to Combat Insecticide Resistance” (PLoS Neglected Tropical Diseases, 2012)
